In US20130115676:
Substitutions are numbered along the chain they refer to.

Key:
Test in all cases: cleavage_in_vitro
[1] = system: BsmBI; settings: NEB3, 10 mM MgCl2, 55 C
[2] = target: T1, BamHI (Bacillus amyloliquefaciens) (UniProt P23940); settings: NEB3, 10 mM MgCl2, 37 C
T1 sequence: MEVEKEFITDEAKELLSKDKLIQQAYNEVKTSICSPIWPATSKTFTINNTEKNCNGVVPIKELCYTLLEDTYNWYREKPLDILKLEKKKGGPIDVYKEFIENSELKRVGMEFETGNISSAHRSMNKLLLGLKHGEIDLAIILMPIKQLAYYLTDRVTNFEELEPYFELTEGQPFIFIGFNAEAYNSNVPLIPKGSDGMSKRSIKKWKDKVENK

[3] = target: EcoRI (Escherichia coli RY13) (UniProt P00642); settings: NEB3, 10 mM MgCl2, 37 C
[4] = system: T2, SspI (Sphaerotilus species); settings: NEB1, 10 mM MgCl2, 37 C
T2 sequence: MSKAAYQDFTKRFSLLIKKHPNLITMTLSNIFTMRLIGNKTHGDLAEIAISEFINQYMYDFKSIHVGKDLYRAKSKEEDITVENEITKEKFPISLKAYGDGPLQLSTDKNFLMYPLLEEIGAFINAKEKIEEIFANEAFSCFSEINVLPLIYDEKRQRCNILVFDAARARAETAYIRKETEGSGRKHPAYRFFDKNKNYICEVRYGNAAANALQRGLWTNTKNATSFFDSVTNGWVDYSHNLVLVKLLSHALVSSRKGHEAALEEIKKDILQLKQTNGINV

[5] = target: T3, ScaI (Streptomyces caespitosus) (UniProt O52691); settings: NEB2, 10 mM MgCl2, 37 C; printed as 1/8
T3 sequence: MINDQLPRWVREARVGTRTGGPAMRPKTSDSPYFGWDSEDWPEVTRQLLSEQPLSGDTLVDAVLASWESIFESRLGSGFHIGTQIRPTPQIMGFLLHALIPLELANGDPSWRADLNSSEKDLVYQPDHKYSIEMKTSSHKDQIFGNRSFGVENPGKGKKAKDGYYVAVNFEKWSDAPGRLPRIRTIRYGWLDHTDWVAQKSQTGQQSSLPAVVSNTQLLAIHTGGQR

[6] = target: T4, HindIII (Haemophilus influenzae Rd) (UniProt P43870); settings: NEB2, 10 mM MgCl2, 37 C
T4 sequence: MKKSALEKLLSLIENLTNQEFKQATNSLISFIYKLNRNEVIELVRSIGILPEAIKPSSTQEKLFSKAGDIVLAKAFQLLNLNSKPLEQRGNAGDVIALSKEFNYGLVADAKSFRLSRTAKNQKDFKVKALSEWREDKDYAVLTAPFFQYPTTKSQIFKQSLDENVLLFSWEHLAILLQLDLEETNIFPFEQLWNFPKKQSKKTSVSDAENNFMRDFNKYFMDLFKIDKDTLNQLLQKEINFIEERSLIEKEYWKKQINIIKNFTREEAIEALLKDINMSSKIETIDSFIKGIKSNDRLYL

[7] = system: T5, BspQI (Bacillus sphaericus); settings: NEB3, 10 mM MgCl2, 50 C
T5 sequence: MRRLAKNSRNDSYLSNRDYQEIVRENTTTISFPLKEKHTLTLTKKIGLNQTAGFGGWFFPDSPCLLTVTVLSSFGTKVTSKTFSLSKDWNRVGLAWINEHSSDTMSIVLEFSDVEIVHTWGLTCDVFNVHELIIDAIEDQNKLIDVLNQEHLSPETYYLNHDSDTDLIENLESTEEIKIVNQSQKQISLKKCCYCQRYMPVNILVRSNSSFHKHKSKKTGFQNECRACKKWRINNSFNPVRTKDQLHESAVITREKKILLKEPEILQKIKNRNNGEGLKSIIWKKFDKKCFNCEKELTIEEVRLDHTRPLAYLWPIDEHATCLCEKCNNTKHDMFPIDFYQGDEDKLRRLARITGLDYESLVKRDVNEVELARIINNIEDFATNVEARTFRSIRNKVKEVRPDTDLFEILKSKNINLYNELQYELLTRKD

[8] = target: T6, ScaI-HF H193A/S201F (Streptomyces caespitosus) (UniProt O52691); settings: NEB4, 10 mM Mg acetate, 37 C
T6 sequence: T3 sequence with H193A, S201F

[9] = system: BsmBI-HF N185Y/R232A; settings: NEB4, 10 mM Mg acetate, 55 C; listed as BsmBI
[10] = system: T7, SphI-HF K100A (Streptomyces phaeochromogenes); settings: NEB4, 10 mM Mg acetate, 37 C
T7 sequence: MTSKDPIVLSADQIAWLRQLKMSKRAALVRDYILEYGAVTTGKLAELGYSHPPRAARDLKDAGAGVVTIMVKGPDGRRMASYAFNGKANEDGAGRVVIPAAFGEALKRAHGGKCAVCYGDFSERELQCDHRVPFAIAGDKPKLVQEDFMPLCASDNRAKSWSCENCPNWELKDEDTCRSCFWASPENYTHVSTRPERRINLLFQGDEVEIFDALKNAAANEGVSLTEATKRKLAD

[11] = target: T8, BamHI-HF E163A/E167T (Bacillus amyloliquefaciens) (UniProt P23940); settings: NEB4, 10 mM Mg acetate, 37 C
T8 sequence: T1 sequence with E163A, E167T

[12] = system: T9, NcoI (Nocardia corallina); settings: NEB1, 10 mM MgCl2, 37 C
T9 sequence: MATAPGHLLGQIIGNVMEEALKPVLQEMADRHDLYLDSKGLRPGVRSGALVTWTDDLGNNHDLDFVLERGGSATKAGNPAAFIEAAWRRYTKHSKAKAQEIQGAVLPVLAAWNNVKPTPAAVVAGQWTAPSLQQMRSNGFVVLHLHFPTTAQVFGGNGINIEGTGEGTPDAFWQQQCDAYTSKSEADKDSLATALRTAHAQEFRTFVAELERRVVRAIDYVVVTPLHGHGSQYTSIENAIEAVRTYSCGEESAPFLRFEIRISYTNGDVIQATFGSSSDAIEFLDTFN

lambda DNA
activity (fidelity index) [1]: 120 | activity (fidelity index) [2]: 32 | activity (fidelity index) [3]: 250 | activity (fidelity index) [4]: 64 | activity (fidelity index) [5]: 0.125 | activity (fidelity index) [6]: 250 | activity (fidelity index) [7]: 32 | activity (fidelity index) [8]: 1000 | activity (fidelity index) [9]: > 500 | activity (fidelity index) [10]: 8000 | activity (fidelity index) [11]: > 4000 | activity (fidelity index) [12]: 120
